Assay results: patent US20090098076A1, “Method For the Production of a Keratin-Binding Effector Molecule” (BASF SE, priority 2005, published 2009)
Values belong to the molecule of their own block, whether it stands above or below them.

What was measured:
hair (human) [1] = assay: Quantitative binding to hair (KBD activity test hair, Example 10); details: for binding to hair, KBD-B compared with comparison protein: binding test on hair, result in words; for measured absorption values at 405 nm (quantitative KBD activity test hair): human hair, detection via His tag with antibody-peroxidase conjugate and TMB
Protocol: In this test, hair was firstly incubated with KBD and excess KBD was washed off. An antibody-peroxidase conjugate was then coupled via the His tag of the KBD. Nonbound antibody-peroxidase conjugate was washed off again. The bound anti body-peroxidase conjugate [Monoclonal AntipolyHistidine Peroxidase Conjugate, produced in mouse, lyophilized powder, Sigma] can convert a colorless substrate (TMB) into a colored product, which can be measured photometrically at 405 nm. The intensity of the absorption indicates the amount of bound KBD or comparison protein. The comparison protein chosen was, for example, YaaD from B. subtilis, which likewise had—as is necessary for this test—a His tag for the detection. Instead of the His tag, other specific antibodies conjugated with peroxidase can also be used.
(or at least 2 h at room temperature) with gentle swinging movements. • Centrifugation, removal of the supernatant • 3× washing with PBS […] • Incubation with 1 ml monoclonal mouse anti-tag (His6 or HA) antibodies with peroxidase:conjugate (1:2000 in PBS/0.05% Tween 20) [Monoclonal AntipolyHistidine Peroxidase Conjugate, produced in mouse, lyophilized powder, Sigma] for 2-4 h at room temperature, gentle swinging movement • 3× washing with PBS/0.05% Tween 20 • Addition of peroxidase substrate (1 ml/Eppendorf vessel) • Allow reaction to proceed until blue coloration (about 2 minutes). • Stop the reaction with […] of 2 M H2SO4. • The absorption is measured at 405 nm.
Peroxidase Substrate (Prepare Shortly Beforehand):
0.1 ml TMB solution (42 mM TMB in DMSO) +10 ml of substrate buffer (0.1 M sodium acetate pH 4.9) +14.7 μl H2O2 3% strength BSA=Bovine serum albumin PBS=Phosphate buffered salt solution
Tween 20=polyoxyethylene sorbitan monolaureate, n about 20
TMB=3,5,3′,5′-tetramethylbenzidine

[2] = target: human hair keratin (human hair, cut into 5 mm sections) (human); assay: quantitative hair binding test, anti-polyHis peroxidase conjugate, TMB
[3] = target: human hair keratin (human hair, cut into 5 mm sections) (human); assay: quantitative hair binding test, anti-polyHis peroxidase conjugate, TMB; protein renatured
[4] = target: human hair keratin (human hair, cut into 5 mm sections) (human); assay: quantitative hair binding test, loss relative to untreated hair after 10% strength SDS treatment
[5] = target: human skin keratin (human); assay: quantitative skin binding test, loss relative to untreated skin after 10% strength SDS treatment
[6] = target: human skin keratin (human); assay: quantitative skin binding test (human keratinocytes in microtiter plates), anti-His antibody, TMB; details: scale: absorption at 405 nm, standardized to the surface
[7] = target: human hair keratin (human hair, cut into 5 mm sections) (human); assay: quantitative hair binding test, anti-polyHis peroxidase conjugate, TMB; protein denatured (not renatured)
[8] = target: human skin keratin (human); assay: quantitative skin binding test (human keratinocytes in microtiter plates), anti-His antibody, TMB; after 10% strength SDS treatment; details: scale: absorption at 405 nm, standardized to the surface
human keratinocytes = assay: Quantitative binding to skin (Example 15)
Protocol: (§1) In order to investigate the binding strength of the KBD-D (SEQ ID No.:168) to skin and hair compared to the KBD-B (SEQ ID No.:166), a quantitative test was carried out. In this test firstly hair was incubated with KBD-B or KBD-D and excess KBD-D or -D was washed off. An antibody-peroxidase conjugate was then coupled via the His/tag of the KBD-B or -D. Nonbound antibody-peroxidase conjugate was washed off again. The bound antibody-peroxidase conjugate can convert a colorless substrate (TMB) into a colored product, which was measured photometrically at 405 nm. The intensity of the absorption indicates the amount of bound KBD-B or -D.
The test for binding to skin was carried out with human keratinocytes in microtiter plates as follows. • 2× washing with PBS/0.05% Tween 20 • addition of 1 ml of 1% BSA in PBS and incubation for 1 h at room temperature, gentle swinging movements (900 rpm). • removal of the supernatant • addition of 100 μg of KBD in PBS with 0.03% Tween 20; incubation for 2 h at room temperature and gentle swinging movements (900 rpm). • removal of the supernatant • 3× washing with PBS/0.05% Tween 20 • incubation with 1 ml of monoclonal mouse anti-tag-His6 antibodies for 2-4 h at room temperature, gentle swinging movement (900 rpm) • 3× washing with PBS/0.05% Tween 20 • addition of peroxidase substrate (1 ml/Eppendorf vessels composition see below) reaction until a blue coloration (about 90 seconds). • reaction stopped with 100 μl of 2 M H2SO4. • the absorption was measured at 405 nm.
(§2) Peroxidase Substrate (Prepared Shortly Beforehand):
0.1 ml TMB solution (42 mM TMB in DMSO) +10 ml substrate buffer (0.1 M sodium acetate pH 4.9) +14.7 μl H2O2 3% strength

hair (human) [9] = assay: Quantitative binding to hair (Example 15); details: relative to untreated hair
Protocol: as §1
In order to characterize the hair binding of the KBD-D compared to the KBD-B, the following binding assay was carried out:
5 mg of hair (human) were cut into sections 5 mm in length and transferred to Eppendorf vessels (protein low-bind). • addition of 1 ml of ethanol for degreasing • centrifugation, removal of ethanol and washing of the hair with H2O • centrifugation, removal of the supernatant • addition of the keratin-binding domains to be tested (coupled to tag—e.g. His6, HA etc.) in 1 ml of PBS/0.05% Tween 20; incubation for 2 h at room temperature with gentle swinging movements • centrifugation, removal of the supernatant • 3× washing with PBS/0.05% Tween 20 • incubation with 1 ml monoclonal mouse anti-tag-(His6 or HA) antibodies with peroxidase conjugate (1:2000 in PBS/0.05% Tween 20) [Monoclonal AntipolyHistidine Peroxidase Conjugate, produced in mouse, lyophilized powder, Sigma] for 2-4 h at room temperature, gentle swinging movement • 3× washing with PBS/0.05% Tween 20 • addition of peroxidase substrate (1 ml/Eppendorf vessel) • allow reaction to proceed until blue coloration (90 seconds). • stop the reaction with 100 μl of 2 M H2SO4.
The absorption was measured at 405 nm
as §2
0.1 ml TMB solution (42 mM TMB in DMSO) +10 ml substrate buffer (0.1 M sodium acetate pH 4.9) +14.7 μl H2O2 3% strength BSA=bovine serum albumin PBS=phosphate buffered salt solution Tween 20=polyoxyethylene sorbitan monolaureate, n about 20 TMB=3,5,3′,5′-tetramethylbenzidine

hair = assay: Hair-binding activity of KBD-B-panthenol (Example 24a)
Protocol: In order to check whether KBD-B also binds with coupled panthenol to hair, a quantitative binding assay was carried out (see FIG. 6): In this test, hair was firstly incubated with KBD-B-panthenol and nonbound KBD-B-panthenol was washed off. A peroxidase was then coupled via the His tag of the KBD-B. Nonbound peroxidase was washed off again. The bound peroxidase can convert a colorless substrate (TMB) into a colored product which was measured photometrically at 405 nm. The intensity of the absorption indicates the amount of bonded KBD-B-panthenol. As comparison sample, KBD-B without panthenol was chosen.
Only above a mixing ratio of 1:4 does the hair binding activity decrease. Coupling to lysines or cysteines present in the protein structure which is no longer selective could be responsible for this, which could lead to an unfolding and thus poorer hair coupling of the protein.

binding to hair, KBD-B compared with comparison protein (hair (human) [1]): significantly poorer binding
measured absorption values at 405 nm (quantitative KBD activity test hair) (hair (human) [1]): A405 nm = 0.088
Absorption at 405 nm [2]: 0.088 A405 nm
B1: Comparison protein YaaD from B. subtilis (His-tagged) (protein, UniProt P37527 1-294, looked up)
chain: MAQTGTERVKRGMAEMQKGGVIMDVINAEQAKIAEEAGAVAVMALERVPADIRAAGGVARMADPTIVEEVMNAVSIPVMAKARIGHIVEARVLEAMGVDYIDESEVLTPADEEFHLNKNEYTVPFVCGCRDLGEATRRIAEGASMLRTKGEPGTGNIVEAVRHMRKVNAQVRKVVAMSEDELMTEAKNLGAPYELLLQIKKDGKLPVVNFAAGGVATPADAALMMQLGADGVFVGSGIFKSDNPAKFAKAIVEATTHFTDYKLIAELSKELGTAMKGIEISNLLPEQRMQERGW

Absorption at 405 nm [3]: 1.59 A405 nm
Relative absorption loss after 10% strength SDS treatment in % [4]: 86%
Relative absorption loss after 10% strength SDS treatment in % [5]: 80%
Absorption at 405 nm [6]: 0.93
Absorption at 405 nm [7]: 0.254 A405 nm
Absorption at 405 nm [8]: 0.185
B2: KBD-B (keratin-binding domain B of human desmoplakin), expressed by the vector pQE30-KBD-B in E. coli (SEQ ID No.: 166) (protein)
chain: MRGSHHHHHHGSACELEPHTGLLLLSVQKRSMSFQGIRQPVTVTELVDSGILRPSTVNELESGQISYDEVGERIKDFLQGSSCIAGIYNETTKQKLGIYEAMKIGLVRPGTALELLEAQAATGFIVDPVSNLRLPVEEAYKRGLVGIEFKEKLLSAERAVTGYNDPETGNIISLFQAMNKELIEKGHGIRLLEAQIATGGIIDPKESHRLPVDIAYKRGYFNEELSEILSDPSDDTKGFFDPNTEENLTYLQLKERCIKDEETGLCLLPLKEKKKQVQTSQKNTLRKRRVVIVDPETNKEMSVQEGVDLQPSLIS

binding to hair, KBD-B compared with comparison protein (hair (human) [1]): considerable superiority
Relative absorption loss after 10% strength SDS treatment in %, skin (human keratinocytes; relative to untreated skin): 80%
Absorption at 405 nm, binding to skin after 10% strength SDS treatment (human keratinocytes; values standardized to the surface, after 10% strength SDS treatment): 0.185
Absorption at 405 nm, binding to skin (human keratinocytes; values standardized to the surface, no SDS treatment): 0.93
Relative absorption loss after 10% strength SDS treatment in %, hair (hair (human) [9]): 86%
B3: KBD-B: keratin-binding domain B of human desmoplakin with N-terminal His tag, SEQ ID No.: 166, expressed in E. coli (protein, listed as Homo sapiens)
chain: MRGSHHHHHHGSACELEPHTGLLLLSVQKRSMSFQGIRQPVTVTELVDSGILRPSTVNELESGQISYDEVGERIKDFLQGSSCIAGIYNETTKQKLGIYEAMKIGLVRPGTALELLEAQAATGFIVDPVSNLRLPVEEAYKRGLVGIEFKEKLLSAERAVTGYNDPETGNIISLFQAMNKELIEKGHGIRLLEAQIATGGIIDPKESHRLPVDIAYKRGYFNEELSEILSDPSDDTKGFFDPNTEENLTYLQLKERCIKDEETGLCLLPLKEKKKQVQTSQKNTLRKRRVVIVDPETNKEMSVQEGVDLQPSLIS

measured absorption values at 405 nm (quantitative KBD activity test hair) (hair (human) [1]): A405 nm = 1.591
B4: KBD-B renatured: KBD-B (SEQ ID No.: 166) renatured by dialysis (protein, listed as Homo sapiens)
chain: MRGSHHHHHHGSACELEPHTGLLLLSVQKRSMSFQGIRQPVTVTELVDSGILRPSTVNELESGQISYDEVGERIKDFLQGSSCIAGIYNETTKQKLGIYEAMKIGLVRPGTALELLEAQAATGFIVDPVSNLRLPVEEAYKRGLVGIEFKEKLLSAERAVTGYNDPETGNIISLFQAMNKELIEKGHGIRLLEAQIATGGIIDPKESHRLPVDIAYKRGYFNEELSEILSDPSDDTKGFFDPNTEENLTYLQLKERCIKDEETGLCLLPLKEKKKQVQTSQKNTLRKRRVVIVDPETNKEMSVQEGVDLQPSLIS
modifications: renatured

influence of coupling reaction temperature on hair binding activity (hair; FIG. 7): no decisive influence
hair binding activity of the coupled protein (hair; above a KBD-B:panthenol mixing ratio of 1:4 (FIG. 7)): decrease
hair binding activity of the coupled protein (hair; up to a KBD-B:panthenol mixing ratio of 1:2, compared with KBD-B without panthenol (FIG. 7)): remains virtually constant
B5: panthenol-coupled KBD-B: KBD-B (SEQ ID No.: 166) coupled via the maleimidocaproic acid linker with panthenol, Example 22 (conjugate, listed as Homo sapiens)
chain: MRGSHHHHHHGSACELEPHTGLLLLSVQKRSMSFQGIRQPVTVTELVDSGILRPSTVNELESGQISYDEVGERIKDFLQGSSCIAGIYNETTKQKLGIYEAMKIGLVRPGTALELLEAQAATGFIVDPVSNLRLPVEEAYKRGLVGIEFKEKLLSAERAVTGYNDPETGNIISLFQAMNKELIEKGHGIRLLEAQIATGGIIDPKESHRLPVDIAYKRGYFNEELSEILSDPSDDTKGFFDPNTEENLTYLQLKERCIKDEETGLCLLPLKEKKKQVQTSQKNTLRKRRVVIVDPETNKEMSVQEGVDLQPSLIS
modifications: maleimidocaproic linker-panthenol conjugate

measured absorption values at 405 nm (quantitative KBD activity test hair) (hair (human) [1]): A405 nm = 0.254
B6: KBD-B denatured: KBD-B (SEQ ID No.: 166) from inclusion bodies, not renatured (protein, listed as Homo sapiens)
chain: MRGSHHHHHHGSACELEPHTGLLLLSVQKRSMSFQGIRQPVTVTELVDSGILRPSTVNELESGQISYDEVGERIKDFLQGSSCIAGIYNETTKQKLGIYEAMKIGLVRPGTALELLEAQAATGFIVDPVSNLRLPVEEAYKRGLVGIEFKEKLLSAERAVTGYNDPETGNIISLFQAMNKELIEKGHGIRLLEAQIATGGIIDPKESHRLPVDIAYKRGYFNEELSEILSDPSDDTKGFFDPNTEENLTYLQLKERCIKDEETGLCLLPLKEKKKQVQTSQKNTLRKRRVVIVDPETNKEMSVQEGVDLQPSLIS
modifications: denatured
